Source: US20110262396A1, “COMBINATION TREATMENTS COMPRISING PROTEASE BINDING PROTEINS FOR INFLAMMATORY DISORDERS” (DYAX CORP., priority 2008, published 2011)

Assays:
gelatinases = assay: Expression and activation of gelatinases; type: cell-based
LNCaPs (prostate cancer) = assay: DHT-stimulated invasion of LNCaPs through Matrigel; type: cell-based; conditions: DX-1000 1 nM
Description: (§1) Firstly, DX-1000 (1 nM) inhibited both DHT-stimulated invasion of LNCaPs (prostate cancer) and HT-1080 (fibrosarcoma) through Matrigel, processes known to be dependent on the plasminogen/plasmin system.

HT-1080 (fibrosarcoma) = assay: Invasion of HT-1080 through Matrigel; type: cell-based; conditions: DX-1000 1 nM
Description: as §1

mouse endothelial cells = assay: Tube formation of mouse endothelial cells; type: cell-based; conditions: 1-10 nM; plated on Matrigel or collagen type I
[1] = Global coagulation screening tests
[2] = Platelet function screening test
human endothelial cells = assay: Tube formation of human endothelial cells; type: cell-based; conditions: 1-10 nM; plated on Matrigel or collagen type I
[3] = tested on: MMP-14 expressed in synovial cells; assay: Collagen film degradation by human synovial cells (Example 8); type: cell-based; conditions: human fibroblasts on bovine type I collagen film, 4 days, data not shown; for collagen film degradation: 37° C.
Description: Human rheumatoid synovial fibroblasts spontaneously express high levels of MMP-14 (Miller et al, 2009 Arthritis Rheum. 2009 March; 60(3):686-97). When they are cultured on collagen film, MMP-14 expressed in synovial cells effectively degrades the collagen film. Human fibroblasts were cultured on bovine type I collagen film at 37° C. for 4 days in the presence or absence of a broad spectrum MMP-inhibitor GM6001, DX-2400 or DX-2410. Cells were then removed from collagen surface by trypsin/EDTA to reveal collagen film. Films were then fixed with 3% PFA for 30 min. and stained with Coomassie blue.

[4] = tested on: collagen-induced arthritis (CIA); assay: CIA mouse model, DX-2712 as monotherapy or combined with DMARDs or BRMs (Example 7); type: in vivo, mouse (DBA/1); conditions: end of study, 31 days of therapy; number in parentheses = dose in mg/kg (Table 12); DX-2712 20 mg/kg IP Q2D
[5] = tested on: collagen-induced arthritis (CIA); assay: MMP-12 inhibition in mouse collagen-induced arthritis (Example 1); type: in vivo; conditions: 20 mg/kg IP Q2D
Description: The study design was as depicted in Table 6 below. [table]

[6] = tested on: collagen-induced arthritis (CIA); assay: DX-2400 and DX-2410 in CIA mouse model (Example 10); type: in vivo, mouse (DBA); conditions: 20 mg/kg i.p. 3x/week from day 21 after collagen injection; for development of arthritis as assessed by histological analysis of the joints: FIG. 9(A)
Description: 200 μg of chicken type II collagen was injected subcutaneously with complete Freunds adjuvant in DBA mice (male, 3-4 months old). After 21 days, test compounds were administered i.p. at 20 mg/kg, 3×/week. The first mouse which developed clinical symptom of arthritis was detected 26 days after collagen injection. […] FIG. 9(B) provides a description of the histology scoring system used.

mouse MMP-9 = mouse MMP-9 (Mus musculus, UniProt P41245); assay: Inhibition of mouse MMP-9; type: biochemical
human MMP-9 = human MMP-9 (Homo sapiens, UniProt P14780); assay: Inhibition of human MMP-9; type: biochemical
human plasmin = biological target: T1, human plasmin (human, UniProt P00747 97-810, limits assumed); assay: inhibition of human plasmin; method not described
T1 construct: In the cell invasion assays the plasmin is that of the cell cultures
T1 sequence (P00747 97-810 limits assumed): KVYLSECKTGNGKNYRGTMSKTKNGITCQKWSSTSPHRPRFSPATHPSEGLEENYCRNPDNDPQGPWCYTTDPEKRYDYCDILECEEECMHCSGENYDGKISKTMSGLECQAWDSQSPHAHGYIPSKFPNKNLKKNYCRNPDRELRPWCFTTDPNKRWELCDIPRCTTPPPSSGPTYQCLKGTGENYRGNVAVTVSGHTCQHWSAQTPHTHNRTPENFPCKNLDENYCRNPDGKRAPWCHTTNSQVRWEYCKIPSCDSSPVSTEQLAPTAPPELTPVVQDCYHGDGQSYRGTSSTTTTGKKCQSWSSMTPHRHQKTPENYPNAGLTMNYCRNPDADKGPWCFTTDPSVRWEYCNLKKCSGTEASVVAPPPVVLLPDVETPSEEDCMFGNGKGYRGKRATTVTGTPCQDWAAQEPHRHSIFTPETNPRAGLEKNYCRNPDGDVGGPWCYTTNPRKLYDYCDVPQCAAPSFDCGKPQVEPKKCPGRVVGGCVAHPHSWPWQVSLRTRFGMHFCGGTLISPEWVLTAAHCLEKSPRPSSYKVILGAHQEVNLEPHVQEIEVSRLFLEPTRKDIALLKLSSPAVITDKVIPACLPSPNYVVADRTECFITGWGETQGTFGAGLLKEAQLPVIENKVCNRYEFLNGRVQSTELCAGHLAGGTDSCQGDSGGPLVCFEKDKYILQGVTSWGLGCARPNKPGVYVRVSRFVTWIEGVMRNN

human MMP-9, sequence (P14780 94-707): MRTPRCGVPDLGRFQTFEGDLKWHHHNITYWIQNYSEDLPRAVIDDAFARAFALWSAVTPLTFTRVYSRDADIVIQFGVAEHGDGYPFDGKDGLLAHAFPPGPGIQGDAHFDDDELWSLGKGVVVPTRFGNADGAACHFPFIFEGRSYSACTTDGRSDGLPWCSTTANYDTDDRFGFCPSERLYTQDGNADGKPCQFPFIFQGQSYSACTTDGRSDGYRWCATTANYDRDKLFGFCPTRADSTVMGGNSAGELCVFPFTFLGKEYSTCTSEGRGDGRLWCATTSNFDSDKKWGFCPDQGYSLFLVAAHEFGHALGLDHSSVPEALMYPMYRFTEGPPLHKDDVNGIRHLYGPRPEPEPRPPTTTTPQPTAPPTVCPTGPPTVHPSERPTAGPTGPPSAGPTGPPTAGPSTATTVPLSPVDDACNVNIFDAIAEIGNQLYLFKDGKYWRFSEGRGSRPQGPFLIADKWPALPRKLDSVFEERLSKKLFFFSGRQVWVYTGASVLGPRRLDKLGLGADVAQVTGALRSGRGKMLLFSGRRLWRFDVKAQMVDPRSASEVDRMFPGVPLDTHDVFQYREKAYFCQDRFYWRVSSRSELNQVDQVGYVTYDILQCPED
mouse MMP-9, sequence (P41245 108-730): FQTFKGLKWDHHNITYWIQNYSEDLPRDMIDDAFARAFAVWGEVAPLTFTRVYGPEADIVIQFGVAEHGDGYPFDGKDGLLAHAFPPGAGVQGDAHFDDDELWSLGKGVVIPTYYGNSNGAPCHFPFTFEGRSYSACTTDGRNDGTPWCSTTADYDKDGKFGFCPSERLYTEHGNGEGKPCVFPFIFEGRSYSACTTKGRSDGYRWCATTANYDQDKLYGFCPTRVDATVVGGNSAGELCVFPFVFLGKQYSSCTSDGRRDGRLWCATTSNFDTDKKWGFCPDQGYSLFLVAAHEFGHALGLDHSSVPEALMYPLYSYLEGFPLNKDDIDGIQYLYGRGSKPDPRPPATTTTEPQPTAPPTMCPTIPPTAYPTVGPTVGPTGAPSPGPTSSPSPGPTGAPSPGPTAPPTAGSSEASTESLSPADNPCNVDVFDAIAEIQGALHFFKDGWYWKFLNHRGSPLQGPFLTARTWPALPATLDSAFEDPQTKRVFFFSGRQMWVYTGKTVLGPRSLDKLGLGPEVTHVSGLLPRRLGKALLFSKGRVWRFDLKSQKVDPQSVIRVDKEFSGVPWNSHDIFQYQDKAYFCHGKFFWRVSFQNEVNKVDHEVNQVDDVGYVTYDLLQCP

Which results are given for “DX-1000: Kunitz domain polypeptide that inhibits human plasmin; SEQ ID NO:100 or SEQ ID NO:200 (EAMHSFCAFKAETGPCRARFDRWFFNIFTRQCEEFIYGGCEGNQNRFESLEECKKMCTRD)”?
expression and activation of gelatinases (gelatinases): down-regulated efficiently; DHT-stimulated invasion of LNCaPs through Matrigel (LNCaPs (prostate cancer)): inhibited; invasion of HT-1080 through Matrigel (HT-1080 (fibrosarcoma)): inhibited; tube formation of mouse endothelial cells (mouse endothelial cells): efficiently blocked; effects on global coagulation screening tests [1]: no clinically significant effects; effects on a platelet function screening test [2]: no clinically significant effects; tube formation of human endothelial cells (human endothelial cells): efficiently blocked

For `CNC(=O)[C@H](Cc1c[nH]c2ccccc12)NC(=O)[C@@H](CC(=O)NO)CC(C)C` [GM6001, reference compound], which collagen film degradation [3] is on record?
Its collagen film degradation is “completely abolished”.

Which “% change in AI Score” value [4] does the source give for Etanercept [Enbrel (30)] here?
Its value is −70.37%.

Which “% change in AI Score” value [4] does the source give for `CN(Cc1cnc2nc(N)nc(N)c2n1)c1ccc(C(=O)N[C@@H](CCC(=O)O)C(=O)O)cc1` [MTX (3), methotrexate] here?
Its value is −80.74%.

B1: DX-2712: Dyax inhibitor of MMP-12; specific MMP-12 antibody inhibitor; VL SEQ ID NO:118, VH SEQ ID NO:120 (antibody, V domains shown)
VH: EVQLLESGGGLVQPGGSLRLSCAASGFTFSWYWMHWVRQAPGKGLEWVSGISPSGGMTMYADSVKGRFTISRDNSKNTLYLQMNSLRAEDTAVYYCARDIVGPYSAGLFDYWGRGTLVTVSS
VL: DIQMTQSPSSLSASVGDRVTITCRASQSIYTYLNWYQQKPGKAPKLLIYAASSLQSGVPSRFSGSGSGTDFTLTISSLQPEDFATYYCQQAGIFGQGTKLEIK
Which “overall inhibition of the arthritic histological indices” value ([5]; compared to untreated mice, p<0.05, FIG. 3) does the source give for B1 here?
The value was 29%.

And the “disease development (arthritic score)” value ([5]; days 36-46, FIG. 2)?
Its value is “arrested”.

And the arthritic score ([5]; last day of the study, FIG. 2)?
Its arthritic score is “sharp increase in arthritic score”.

What about the “disease development (arthritic score)” value ([5]; through day 35, FIG. 2) of the same molecule?
Its value is “delayed disease development”.

And the “% change in AI Score” value [4]?
Its value is −34.07%.

B2: DX-2400: exemplary MMP-14 antibody; VH SEQ ID NO:59, VL SEQ ID NO:23 (antibody, V domains shown)
VH: EVQLLESGGGLVQPGGSLRLSCAASGFTFSLYSMNWVRQAPGKGLEWVSSIYSSGGSTLYADSVKGRFTISRDNSKNTLYLQMNSLRAEDTAVYYCARGRAFDIWGQGTMVTVSS
VL: DIQMTQSPSSLSASVGDRVTITCRASQSVGTYLNWYQQKPGKAPKLLIYATSNLRSGVPSRFSGSGSGTDFTLTISSLQPEDFATYYCQQSYSIPRFTFGPGTKVDIK
Which results are given for B2?
redness and swelling of paws [6]: did not significantly improve; development of arthritis as assessed by histological analysis of the joints [6]: significantly attenuated; inhibition of collagen film degradation at 500 nM [3]: almost complete inhibition; collagen film degradation [3]: inhibited collagen degradation in a dose-dependent manner

B3: DX-2410: exemplary MMP-14 antibody; VH SEQ ID NO:24, VL SEQ ID NO:25 (antibody, V domains shown)
VH: EVQLLESGGGLVQPGGSLRLSCAASGFTFSVYGMVWVRQAPGKGLEWVSVISSSGGSTWYADSVKGRFTISRDNSKNTLYLQMNSLRAEDTAVYYCARPFSRRYGVFDYWGQGTLVTVSS
VL: DIQMTQSPSSLSASVGDRVTITCRASQGIRNFLAWYQQKPGKVPKLLIYGASALQSGVPSRFSGSGSGTDFTLTISSLQPEDVATYYCQKYNGVPLTFGGGTKVEIK
For B3, which “redness and swelling of paws” value [6] is on record?
The value was “did not significantly improve”.

And the “development of arthritis as assessed by histological analysis of the joints” value [6]?
The value was “significantly attenuated”.

What about the “inhibition of collagen film degradation at 500 nM” value [3] of the same molecule?
Its value is “slightly lower than DX-2400, showing degraded area”.

What about the collagen film degradation [3] of the same molecule?
Its collagen film degradation is “inhibited collagen degradation in a dose-dependent manner”.

B4: 539A-M0240-B03: selective inhibitor of MMP-9; parental isolate (sFab; IgG) (antibody, V domains shown)
VL: QYELTQPRSVSGSPGQSVTISCTGTSSDVGGYNYVSWYQQHPGKAPKLMIYDVSKRPSGVPDRFSGSKSGNTASLTISGLQAEDEADYYCCSYAGSYTLVFGGGTKLTVL
VH: EVQLLESGGGLVQPGGSLRLSCAASGFTFSTYQMVWVRQAPGKGLEWVSVIYPSGGPTVYADSVKGRFTISRDNSKNTLYLQMNSLRAEDTAVYYCARGEDYYDSSGPGAFDIWGQGTMVTVSS
For B4, which “inhibition of mouse MMP-9 activity” value (mouse MMP-9) is on record?
Its value is “can decrease or inhibit the activity”.

And the “inhibition of human MMP-9 activity” value (human MMP-9)?
Its value is “can decrease or inhibit the activity”.

B5: DX-1000 (designed binder)
chain: EAMHSFCAFKAETGPCRARFDRWFFNIFTRQCEEFIYGGCEGNQNRFESLEECKKMCTRD
Which Ki (human plasmin) does the source give for B5 here?
Its Ki is 0.088 nM.
